Results taken from patent EP2545075B1 (NovelMed Therapeutics, Inc., dated 2020).
Changes are numbered by the printed parent chain.

What was measured:
human properdin [1] = target: T1, human properdin (human, UniProt P27918 28-469); assay: Properdin binding assay (Fig. 27)
T1 construct: also called antigen properdin

human properdin [2] = target: T1, human properdin; assay: cell-based or functional assay
human properdin [3] = target: T1, human properdin; assay: Competition ELISA: properdin (50 nM) plus antibody on C3b-coated wells
human properdin [4] = target: T1, human properdin; assay: Properdin ELISA

T1 sequence (P27918 28-469 limits assumed): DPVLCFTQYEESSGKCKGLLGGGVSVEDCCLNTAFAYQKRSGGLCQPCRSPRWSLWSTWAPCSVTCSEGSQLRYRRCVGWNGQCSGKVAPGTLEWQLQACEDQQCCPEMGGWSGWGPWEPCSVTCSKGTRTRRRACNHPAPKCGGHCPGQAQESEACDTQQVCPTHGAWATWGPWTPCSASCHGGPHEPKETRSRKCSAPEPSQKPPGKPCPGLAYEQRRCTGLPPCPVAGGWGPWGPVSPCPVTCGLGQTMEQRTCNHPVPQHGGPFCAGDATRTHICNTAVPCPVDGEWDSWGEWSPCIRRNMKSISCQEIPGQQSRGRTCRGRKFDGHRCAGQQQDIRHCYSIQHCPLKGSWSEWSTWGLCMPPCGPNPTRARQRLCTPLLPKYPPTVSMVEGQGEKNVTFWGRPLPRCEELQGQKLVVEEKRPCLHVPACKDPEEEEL

B1: BAP010hum02 (antibody, human IgG1, V domains shown)
VH: QVQLQESGPGLVKPSQTLSLTCTVSGYIFTNYPIHWVRQAPGKGLEWVSFIDPGGGYDEPDERFRDRVTISVDTSKNQFSLKLSSVTAADTAVYYCARRGGGYYLDYWGQG
VL: EIVLTQSPATLSLSPGERATLSCRASQDISFFLNWFQQRPGQSPRRLIYYTSRYHSGIPPRFSGSGYGTDFTLTINNIESEDAAYYFCQHGNTLPWTFGQG
notes: Humanized clone; The variable domains were cloned into the mammalian expression vector used for human IgG1/kappa; also called BAP010hum02_HC
binding result (human properdin [1]): binds

B2: NM9401-IgG (antibody, V domains shown)
VH: QVQLQQSAPELARPGASVKMSCTASGYIFTNYPIHWVKQRPGQGLEWIGFIDPGGGYDEPDERFRDRATLTADKSSSTAYMQLSSLTSEDSAIYYCARRGGGYYLDYWGQGTTLTVSS
VL: DIQMTQTTSSLSASLGDRVTISCRASQDISFFLNWYQQKPDGTVKLLIYYTSRYHSGVPSRFSGSGSGTDFSLTINNLEQEDFATYFCQHGNTLPWTFGGGTKLEIK
modifications: Biotinylated in Example 5 (site not stated).
IC50 of inhibition in erythrocyte lysis assay using rabbit erythrocytes (human properdin [2]): 20 to 30 nM

B3: NM9401-F(ab')2 (other)
VH: B2 VH
VL: B2 VL
modifications: F(ab')2 has two identical arms joined by hinge disulfides. The letters give one arm's variable domains.
notes: F(ab')2 fragment of the murine antibody NM9401; also called anti-properdin F(ab')2
IC50 (human properdin [3]): 29 nM | molar ratio of antibody to properdin (human properdin [3]): 0.5

B4: BAP010_1 (antibody, IgG1, V domains shown)
VH: B2 VH
VL: B2 VL
notes: Chimeric full-length IgG1/kappa carrying the variable domains of NM9401, expressed in CHO-S cells; also called chimeric anti-properdin monoclonal antibody; recombinant antibody BAP010_1
IC50 of inhibition in erythrocyte lysis assay using rabbit erythrocytes (human properdin [2]): 20 to 30 nM | Kd (human properdin [4]): ~0.054 nM

B5: NM9401-Fab (Fab, V domains shown)
VH: B2 VH
VL: B2 VL
notes: Fab fragment of the murine antibody NM9401; also called anti-properdin Fab
IC50 (human properdin [3]): 72 nM | molar ratio of antibody to properdin (human properdin [3]): 1.2

B6: BAP010hum03 (antibody, human IgG1, V domains shown)
VH: EVQLVQSGAEVKKPGESLRISCKGSGYIFTNYPIHWIRQSPSRGLEWLGFIDPGGGYDEPDERFRDRVTISADKSISTAYLQWSSLKASDTAMYYCARRGGGYYLDYWGQG
VL: DIQMTQSPSSLSASVGDRVTITCRASQDISFFLNWYQQKPGKAPKLLIYYTSRYHSGVPSRFSGSGSGTEFTLTISSLQSEDFAVYYCQHGNTLPWTFGQG
notes: Humanized clone; The variable domains were cloned into the mammalian expression vector used for human IgG1/kappa; also called BAP010hum03_HC
binding result (human properdin [1]): binds

B7: BAP010hum10 (antibody, human IgG1, V domains shown)
VH: QVQLQESGPGLVKPSQTLSLTCTVSGYIFTNYPIHWVRQATGQGLEWMGFIDPGGGYDEPDERFRDRVTITADKSTSTAYMELSSLRSEDTAVYYCARRGGGYYLDYWGQG
VL: B6 VL with V58I, S60P, S67Y, L73F, Q79E, S80A, F83A, V85T
notes: Humanized clone; The variable domains were cloned into the mammalian expression vector used for human IgG1/kappa; also called BAP010hum10_HC
binding result (human properdin [1]): binds
